According to patent publication US20230235058A1 (OXFORD UNIVERSITY INNOVATION, published 2023):
Substitutions are numbered along the chain they refer to. In names and notes the source's numbering stands.

B1: 12F11 (antibody, IgG1, V domains shown)
VH: EVQLQQSGPELVKPGASVKISCKASGYTFTDYYMNWVKQSHGKSLEWIGDINPNNGGTSYNQKFKGKATLTVDKSSSTAYMELRSLTSEDSAVYYCARWRQLRSDYWGQGTTLTVSS
VL: DIQMTQSPASQSASLGESVTITCLASQTIGTWLAWYQQKPGKSPQLLIYAATSLADGVPSRFSGSGSGTKFSFKISSLQAEDFVSYYCQQLYSTPLTFGAGTKLELK
notes: mIgG1
B2: 4H4 (antibody, IgG1, V domains shown)
VH: QVQLQQSGAELARPGASVKLSCKASGYTFTSYGISWVKQRTGQGLEWIGEIYPRSGNTYYNEKFKGKATLTADKSSSTAYMELRSLTSEDSAVYFCARRRGAGDGFDYWGQGTTLTVSS
VL: DIQMTQTTSSLSASLGDRVTISCSASQGISNYLNWYQQKPDGTVKLLIYYTSSLHSGVPSRFSGSGSGTDYSLTISNLEPEDIATYYCQQYSKLPFTFGSGTKLEIK
notes: mIgG1
B3: 8B4 (antibody, IgG1, V domains shown)
VH: B2 VH with S21P, N57T, R100I, G101S, A102S, D104S, F106V
VL: B2 VL with K93E, F96W, S100G
notes: mIgG1
B4: 4B1 (antibody, IgG1, V domains shown)
VH: B2 VH with K19R, I34L, S35I, V37L, N57S, K63W, S77N, Y80F, A102T, T114I
VL: B2 VL with S92I, K93E
notes: mIgG1
B5: 21C7 (antibody, IgG1, V domains shown)
VH: QIQLQQSGPELVKPGASVKISCKASGYAFSSSWMNWVKKRPGKGLEWIGRIYPGDGDANYNGKFKGKATLTADKSSSTAYMQLSSLTSEDSAVYFCAGEGHYYGSGYRWYLDVWGTGTTVTVSS
VL: DIQMTQSPASLSVSVGETVTITCRASENIYSNLAWYQQKQGKSPQLLVYAATNLADGVPSRFSGSGSGTQYSLKINSLQSEDFGSYYCQHFRGAPFTFGSGTKLEIK
notes: mIgG1
B6: 3A9 (antibody, IgG1, V domains shown)
VH: QVQLKQSGAELVRPGASVKLSCKASGYTFTDYYINWVKQRPGQGLEWIARIYPGSGNTYYNEKFKGKATLTAEKSSSTAYMQLSSLTSEDSAVYFCARGYGNSDYWGQGTTLTVSS
VL: DILLTQSPAILSVSPGERVSFSCRASQSIGTRIHWYQQRTNGSPRLLIKYASESISGIPSRFSGSGSGTDFTLSINSVESEDIADYYCQQSNSWPYTFGGGTKLEIK
notes: mIgG1
B7: 4D5 (antibody, IgG1, V domains shown)
VH: QIQLVQSGPELKKPGETVKISCKASGYTFTTYGVSWVKQAPGKVLKWMGWINTYSGVPTYADDFKGRFAFSLETSASTAYLQISNLKNEDTATYFCAPVTTILHWYFDVWGTGTTVTVSS
VL: DIQMTQSPSSLSASLGERVSLTCRASQEISGYLSWLQQKPDGTIKRLIYAASTLDSGVPKRFRGSRSGSDYSLTISSLESEDFADYYCLQYASYPFTFGSGTKLEIK
notes: mIgG1
B8: 16F10 (antibody, IgG1, V domains shown)
VH: DVQLQESGPGLVKPSQSLSLTCSVTGYSITSGYYWNWIRQFPGNKLEWMGYISYDGSNNYNPSLKNRISITRDTSKNQFFLKLNSVTTEDTATYYCASIYGNYYAMDYWGQGTSVTVSS
VL: QIVLTQSPAIMSASPGEKVTMTCSASSSVSYMHWYQQKSGTSPKRWIYDTSKLASGVPARFSGSGSGTSYSLTISSMEAEDAATYYCQQWSSNPPTFGSGTKLEIK
notes: mIgG1
B9: 7A1 (antibody, IgG1, V domains shown)
VH: QVQLQQSGPELVKPGASVKISCKASGYAFSSSWMNWVKQRPGKGLEWIGRIYPGDGDTNYNGKFKGKATLTADKSSSTAYMQLSSLTSEDSAVYFCARRGYGYLAYWGQGTLVTVSA
VL: DIVMTQSHKFMSTSVGDRVSITCKASQDVSTAVAWYQQKPGQSPKLLIYSASYRYTGVPDRFTGSGSGTDFTFTISSVQAEDLAVYYCQQHYSTPWTFGGGTKLEIK
notes: mIgG1
B10: 15C6 (antibody, IgG1, V domains shown)
VH: B9 VH
VL: B9 VL with W96Y
notes: mIgG1
B11: 10B1 (antibody, IgG1, V domains shown)
VH: B2 VH with R99N, R100Y, A102S, G103S, D104Y, G105P, D107A, T114L, L115V, S119A
VL: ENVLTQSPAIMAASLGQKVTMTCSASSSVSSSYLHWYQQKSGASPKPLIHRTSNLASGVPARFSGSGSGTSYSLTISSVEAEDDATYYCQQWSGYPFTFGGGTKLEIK
B12: 16E1 (antibody, IgG1, V domains shown)
VH: B2 VH with R99G, R100Y, A102S, G103S, D104Y, D107A, T114L, L115V, S119A
VL: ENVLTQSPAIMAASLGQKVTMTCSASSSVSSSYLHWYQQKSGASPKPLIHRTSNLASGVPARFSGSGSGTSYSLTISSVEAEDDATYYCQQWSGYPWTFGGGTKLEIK
B13: 15B6 (antibody, IgG1, V domains shown)
VH: QVQLQQPGAELVKPGASVKLSCKASGYTFTSYWMHWVKQRPGQGLEWIGMIHPNSGSTNYNEKFKSKATLTVDKSSSTAYMQLSSLTSEDSAVYYCARKRGGLGDYWGQGTSVTVSS
VL: DIVLTQSPASLAVSLGQRATISCRASKSVSTSGYSYMHWYQQKPGQPPKLLIYLASNLESGVPARFSGSGSGTDFTLNIHPVEEEDAATYYCQHSRELPYTFGGGTKLEIK
B14: 11.5.1 D265A (antibody, V domains shown)
VH: EVQLQESGPSLVKPSQTLSLTCSVTGDSITSAYWNWIRKFPGNKLEYMGYISYSGSTYFNPSLKSRISITRNTSKNQYYLQLNSVTTEDTATYYCARSHYYGYYFDYWGHGTTLTVSS
VL: DIVLTQSPASLAVSLGQRATISCRASETIDSYGDSLMHWYQQKAGQPPKLLIYRASNLESGIPARFSGSGSRTDFTLTINPVEADDVATYYCQQTDEDPYTFGGGTKLEIK
B15: 831 (antibody, IgG1, V domains shown)
VH: DVQLQESGPDLVKPSQSLSVTCTVTGYSITSGYSWHWIRQFPGNKLEWMGYIHYSGSTNYNPSLKSRISITRDTSKNQFFLQLSSVTTEDTATYYCASGPHRYDGVWFAYWGQGTLVTVSS
VL: EIVLTQSPTTMAASPGEKITITCSASSSISSNYLHWYQQKPGFSPKLLIYRTSNLASGVPARFSGSGSGTSYSLTIGTMEAEDVATYYCQQGTNIPLTFGAGTKLEIK

The binders below were run against T1, monomeric soluble human BTLA extracellular domain (BTLA K31-R151) (human, UniProt Q7Z6A9 31-151) (assay: SPR 37C, mAb captured, BTLA ECD analyte;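 further: Anti-BTLA mouse antibodies captured on a sensor chip via polyclonal anti-mouse IgG, isotype control antibody in reference channel, rates fitted after reference and blank subtraction to derive Kd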).
T1 construct: also called hBTLA; monomeric BTLA
Wherever AntiCD3/CD28 (CD4 T cell proliferation) repeat 1 is given: test concentration or dose not given here.
Wherever AntiCD3/CD28 (CD4 T cell proliferation) repeat 2 is given: test concentration or dose not given here.
Wherever AntiCD3/CD28 (CD69+ CD4 T cells) repeat 1 is given: test concentration or dose not given here.
Wherever AntiCD3/CD28 (CD69+ CD4 T cells) repeat 2 is given: test concentration or dose not given here.
Wherever MLR (CD4 T cell proliferation) repeat 1 is given: test concentration or dose not given here.
Wherever MLR (CD4 T cell proliferation) repeat 2 is given: test concentration or dose not given here.
Wherever T cell reporter (NFκB signaling) is given: test concentration or dose not given here.

Kd	koff	kon	Binder
722 nM	0.155 s⁻¹	215000 M⁻¹ s⁻¹	B1
1710 nM	0.347 s⁻¹	203000 M⁻¹ s⁻¹	B2
8.17 nM	0.0044 s⁻¹	538000 M⁻¹ s⁻¹	B3
3.21 nM	0.00185 s⁻¹	577000 M⁻¹ s⁻¹	B4
43.6 nM	0.0406 s⁻¹	930000 M⁻¹ s⁻¹	B5
4010 nM	1.63 s⁻¹	406000 M⁻¹ s⁻¹	B6
2930 nM	0.79 s⁻¹	270000 M⁻¹ s⁻¹	B7
48.8 nM	0.0283 s⁻¹	581000 M⁻¹ s⁻¹	B8
40.2 nM	0.0166 s⁻¹	413000 M⁻¹ s⁻¹	B9
718 nM	0.138 s⁻¹	193000 M⁻¹ s⁻¹	B10

These binders were tested against chimeric BTLA of humanised-BTLA mice (human extracellular region, murine transmembrane and signaling … (human; mouse, UniProt Q7TSA3 184-306, limits assumed) (assay: cell-based or functional assay).
Sequence of chimeric BTLA of humanised-BTLA mice (human extracellular region, murine transmembrane and signaling … (Q7TSA3 other isoform, or with tags, fused parts or gaps mutant limits assumed): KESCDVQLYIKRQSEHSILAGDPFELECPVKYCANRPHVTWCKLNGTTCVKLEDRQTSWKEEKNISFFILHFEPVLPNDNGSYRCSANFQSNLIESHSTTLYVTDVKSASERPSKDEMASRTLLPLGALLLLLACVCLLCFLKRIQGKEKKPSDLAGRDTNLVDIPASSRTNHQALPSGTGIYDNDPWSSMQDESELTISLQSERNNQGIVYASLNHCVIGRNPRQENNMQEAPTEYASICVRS

AntiCD3/CD28 (CD4 T cell proliferation) repeat 1	AntiCD3/CD28 (CD4 T cell proliferation) repeat 2	AntiCD3/CD28 (CD69+ CD4 T cells) repeat 1	AntiCD3/CD28 (CD69+ CD4 T cells) repeat 2	MLR (CD4 T cell proliferation) repeat 1	MLR (CD4 T cell proliferation) repeat 2	Binder
5 % inhibition	9 % inhibition	30 % inhibition	40 % inhibition	28 % inhibition	23 % inhibition	B1
14 % inhibition	22 % inhibition	43 % inhibition	52 % inhibition	10 % inhibition	17 % inhibition	B2
8 % inhibition	14 % inhibition	24 % inhibition	36 % inhibition	16 % inhibition	25 % inhibition	B11
4 % inhibition	8 % inhibition	9 % inhibition	23 % inhibition	33 % inhibition	8 % inhibition	B12
20 % inhibition	4 % inhibition	51 % inhibition	47 % inhibition	33 % inhibition	23 % inhibition	B3
14 % inhibition	18 % inhibition	47 % inhibition	41 % inhibition	33 % inhibition	30 % inhibition	B4
10 % inhibition	-4 % inhibition	39 % inhibition	35 % inhibition	8 % inhibition	17 % inhibition	B5
9 % inhibition	9 % inhibition	22 % inhibition	34 % inhibition	7 % inhibition	24 % inhibition	B6
9 % inhibition	16 % inhibition	13 % inhibition	20 % inhibition	7 % inhibition	13 % inhibition	B13
-3 % inhibition	-9 % inhibition	-47 % inhibition	-26 % inhibition	-3 % inhibition	1 % inhibition	B14
14 % inhibition	17 % inhibition	28 % inhibition	38 % inhibition	23 % inhibition	29 % inhibition	B9
2 % inhibition	-2 % inhibition	12 % inhibition	19 % inhibition	19 % inhibition	8 % inhibition	B10
10 % inhibition	8 % inhibition	50 % inhibition	53 % inhibition	25 % inhibition	34 % inhibition	B15

The binders below were run against full length human BTLA expressed on cells (human, UniProt Q7Z6A9 31-289) (assay: cell-based or functional assay).

T cell reporter (NFκB signaling)	Binder
30 % inhibition	B1
25 % inhibition	B2
27 % inhibition	B11
22 % inhibition	B12
24 % inhibition	B3
23 % inhibition	B4
23 % inhibition	B5
27 % inhibition	B6
21 % inhibition	B13
-13 % inhibition	B14
20 % inhibition	B9
9 % inhibition	B10
24 % inhibition	B15
